# From publication PMC10312975 (Research Square, 2023)
# B1: CCDC22 DBD (280-446), untagged (domain or fragment, human, UniProt O60826 280-446, looked up)
# chain: GAGAKTGAPKGSRFTHSEKFTFHLEPQAQATQVSDVPATSRRPEQVTWAAQEQELESLREQLEGVNRSIEEVEADMKTLGVSFVQAESECRHSKLSTAEREQALRLKSRAVELLPDGTANLAKLQLVVENSAQRVIHLAGQWEKHRVPLLAEYRHLRKLQDCRELES
# notes: CCDC22, human, DBD; source: E. coli BL21 (DE3) T1R, purified, MBP removed with TEV; not shown: MBP, N-terminal, cleaved
# Assays:
# Settings in all cases: both partners purified
# [1] = target: T1, DENND10, full length, His6 tag removed (human, UniProt Q8TCE6 1-357); assay: SEC; untagged DBD dimer and DENND10, alone and mixed; Superdex 200, 100 mM NaCl, 10 mM HEPES pH 7.0, 5% glycerol, 1 mM DTT; SDS-PAGE of fractions
# T1 construct: DENND10 (FAM45A), human, codon-optimised gene; source: E. coli BL21 (DE3) T1R, purified (Source 15Q, TEV cleavage, Source 15Q); not shown: His6, N-terminal, cleaved
# T1 sequence (Q8TCE6 whole entry): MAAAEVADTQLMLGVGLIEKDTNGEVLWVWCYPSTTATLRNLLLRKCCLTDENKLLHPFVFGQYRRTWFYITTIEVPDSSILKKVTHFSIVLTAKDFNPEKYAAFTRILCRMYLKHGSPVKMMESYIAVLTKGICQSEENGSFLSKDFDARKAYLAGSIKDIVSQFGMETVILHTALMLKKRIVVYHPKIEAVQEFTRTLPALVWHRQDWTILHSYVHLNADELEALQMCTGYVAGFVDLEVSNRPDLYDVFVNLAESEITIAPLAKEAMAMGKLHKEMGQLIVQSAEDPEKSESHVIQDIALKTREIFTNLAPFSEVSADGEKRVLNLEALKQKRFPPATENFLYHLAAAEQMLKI
# [2] = target: B1; assay: as above
# MBP-CCDC22 (280-446) = target: T2, MBP-CCDC22 (280-446) (human, UniProt O60826 280-446); assay: reconstitution by mixing and co-purification; amylose-purified MBP-tagged CCDC22 and CCDC93 fragments mixed about 1:1, overnight at 4 °C, then Source 15Q and Superdex 200
# T2 construct: CCDC22, human, DBD; also called MBP-CCDC22 DBD; source: E. coli BL21 (DE3) T1R, purified (amylose); not shown: MBP, N-terminal, kept
# [3] = target: T3, His6-Tev-DENND10, full length (pull-down prey) (human, UniProt Q8TCE6 1-357); assay: pull-down; MBP-tagged DBD dimer (200 pmol) as bait on amylose beads, DENND10 (500 pmol) as prey; 10 mM HEPES pH 7, 150 mM NaCl, 5% glycerol, 0.05% Triton X-100, 5 mM beta-mercaptoethanol, 4 °C, 30 min; Coomassie
# T3 construct: DENND10 (FAM45A), human, codon-optimised gene; source: E. coli BL21 (DE3) T1R, purified (Ni-NTA, Source 15Q, Superdex Increase 200)
# T3 sequence (Q8TCE6 whole entry): as above
binder,measurement,setting,value
"CCDC93 DBD (305-433), untagged (domain or fragment, human, UniProt Q567U6 305-433, looked up, CCDC93, human, DBD; source: E. coli BL21 (DE3) T1R, purified, MBP removed with TEV; not shown: MBP, N-terminal, cleaved) SPEKLGTSQLHRRKVISLNKQIAQKTKHLEELRASHTSLQARYNEAKKTLTELKTYSEKLDKEQAALEKIESKADPSILQNLRALVAMNENLKSQEQEFKAHCREEMTRLQQEIENLKAERAPRGDEKT",binding result,[1],binds
same,binding result,[2],binds
"MBP-CCDC93 (305-433) (domain or fragment, human, UniProt Q567U6 305-433, looked up, CCDC93, human, DBD; also called MBP-CCDC93 DBD; source: E. coli BL21 (DE3) T1R, purified (amylose); not shown: MBP, N-terminal, kept) SPEKLGTSQLHRRKVISLNKQIAQKTKHLEELRASHTSLQARYNEAKKTLTELKTYSEKLDKEQAALEKIESKADPSILQNLRALVAMNENLKSQEQEFKAHCREEMTRLQQEIENLKAERAPRGDEKT",binding result,MBP-CCDC22 (280-446),binds
B1,binding result,[1],binds
"MBP-tagged CCDC22-CCDC93 DBD dimer (complex, human, CCDC22, human, DBD (CC1, CC2a); CCDC93, human, DBD (CC1, CC2a); also called DBD heterodimer; source: E. coli BL21 (DE3) T1R, purified (amylose, mixed about 1:1, Source 15Q, Superdex 200); not shown: MBP, N-terminal, kept) chain 1: GAGAKTGAPKGSRFTHSEKFTFHLEPQAQATQVSDVPATSRRPEQVTWAAQEQELESLREQLEGVNRSIEEVEADMKTLGVSFVQAESECRHSKLSTAEREQALRLKSRAVELLPDGTANLAKLQLVVENSAQRVIHLAGQWEKHRVPLLAEYRHLRKLQDCRELES chain 2: SPEKLGTSQLHRRKVISLNKQIAQKTKHLEELRASHTSLQARYNEAKKTLTELKTYSEKLDKEQAALEKIESKADPSILQNLRALVAMNENLKSQEQEFKAHCREEMTRLQQEIENLKAERAPRGDEKT",binding result,[3],binds
"MBP-tagged CCDC22-CCDC93 DBD dimer, CCDC93 E410R (complex, human, CCDC22, human, DBD; CCDC93, human, DBD; source: E. coli BL21 (DE3) T1R, purified; not shown: MBP, N-terminal, kept) chain 1: GAGAKTGAPKGSRFTHSEKFTFHLEPQAQATQVSDVPATSRRPEQVTWAAQEQELESLREQLEGVNRSIEEVEADMKTLGVSFVQAESECRHSKLSTAEREQALRLKSRAVELLPDGTANLAKLQLVVENSAQRVIHLAGQWEKHRVPLLAEYRHLRKLQDCRELES chain 2: SPEKLGTSQLHRRKVISLNKQIAQKTKHLEELRASHTSLQARYNEAKKTLTELKTYSEKLDKEQAALEKIESKADPSILQNLRALVAMNENLKSQEQEFKAHCRERMTRLQQEIENLKAERAPRGDEKT",binding result,[3],binds
